The record followed here is publication PMC3171469, “Multiple ETS Family Proteins Regulate PF4 Gene Expression by Binding to the Same ETS Binding Site”.

Series [1] concerns the target T1, FLI-1 (UniProt Q01543 1-452).
T1 sequence: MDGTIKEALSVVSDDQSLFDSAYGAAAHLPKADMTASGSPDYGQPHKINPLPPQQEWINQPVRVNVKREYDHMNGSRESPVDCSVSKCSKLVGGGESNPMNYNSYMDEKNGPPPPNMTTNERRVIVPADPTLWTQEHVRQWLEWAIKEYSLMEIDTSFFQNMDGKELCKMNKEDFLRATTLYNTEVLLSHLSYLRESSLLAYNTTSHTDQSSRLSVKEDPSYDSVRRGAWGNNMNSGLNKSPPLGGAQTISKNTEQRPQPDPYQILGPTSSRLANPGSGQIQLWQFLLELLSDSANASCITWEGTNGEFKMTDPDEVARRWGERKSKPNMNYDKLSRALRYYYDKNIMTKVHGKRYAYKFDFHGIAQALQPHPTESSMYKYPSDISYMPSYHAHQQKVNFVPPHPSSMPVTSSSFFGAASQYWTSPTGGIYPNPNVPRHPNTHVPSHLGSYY
Nature of the series: EMSA; supershift with anti-FLI-1; 2 mM HEPES-NaOH pH 7.9, 5 mM KCl, 2% glycerol, 0.01 mM EDTA, 0.25 mM DTT, 0.1 mg/ml BSA, 5 ng/ul poly dI-dC, 50 fmol probe, 40 min at 4 C; 4% native gel, 0.5x TBE. The note with it: protein: ivt; label: 32P; blunt. (In general: In EMSA bound probe runs differently from free probe, usually more slowly.)

Series [2] has as its target T2, ELF-1 (UniProt P32519 1-619). Briefly: EMSA; anti-ELF-1 inhibits, weak supershift; 2 mM HEPES-NaOH pH 7.9, 5 mM KCl, 2% glycerol, 0.01 mM EDTA, 0.25 mM DTT, 0.1 mg/ml BSA, 5 ng/ul poly dI-dC, 50 fmol probe, 40 min at 4 C; 4% native gel, 0.5x TBE. The following applies: protein: ivt; label: 32P; blunt.
Series [3] addresses T2, ELF-1. Briefly: EMSA; 2 mM HEPES-NaOH pH 7.9, 5 mM KCl, 2% glycerol, 0.01 mM EDTA, 0.25 mM DTT, 0.1 mg/ml BSA, 5 ng/ul poly dI-dC, 50 fmol probe, 40 min at 4 C; 4% native gel, 0.5x TBE. The following applies: protein: ivt; label: 32P as probe; blunt.
For series [4], the target named is T1, FLI-1. The description is as above. The note with it: protein: ivt; label: 32P as probe; blunt.

T2 sequence (P32519 whole entry): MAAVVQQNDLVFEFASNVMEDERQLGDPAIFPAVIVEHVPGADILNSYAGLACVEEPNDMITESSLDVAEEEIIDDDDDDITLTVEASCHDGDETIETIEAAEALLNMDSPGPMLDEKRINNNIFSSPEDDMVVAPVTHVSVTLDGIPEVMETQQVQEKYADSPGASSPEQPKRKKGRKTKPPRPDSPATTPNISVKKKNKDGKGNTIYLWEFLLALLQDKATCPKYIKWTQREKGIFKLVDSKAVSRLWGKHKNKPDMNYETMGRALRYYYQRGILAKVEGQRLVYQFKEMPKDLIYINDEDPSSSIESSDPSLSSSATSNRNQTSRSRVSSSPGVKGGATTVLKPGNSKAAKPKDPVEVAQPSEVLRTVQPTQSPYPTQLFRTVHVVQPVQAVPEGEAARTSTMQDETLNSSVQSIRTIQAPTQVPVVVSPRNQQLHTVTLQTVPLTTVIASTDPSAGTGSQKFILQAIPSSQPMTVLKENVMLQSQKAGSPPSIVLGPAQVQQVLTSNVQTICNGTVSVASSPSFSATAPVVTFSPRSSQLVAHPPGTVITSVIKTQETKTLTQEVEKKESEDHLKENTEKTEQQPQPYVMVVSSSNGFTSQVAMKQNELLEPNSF

B1: -51 ETS (dsDNA)
DNA 1: CCCGGGTTTCCGGACTGGGCTG
DNA 2: CAGCCCAGTCCGGAAACCCGGG
Consider B1, for which the binding result with FLI-1 [1] and with ELF-1 [2] was “binds” in each case.

B2: -51 ETSmut (dsDNA)
DNA 1: CCCGGGTCGGTGGACTGGGCTG
DNA 2: CAGCCCAGTCCACCGACCCGGG
Turning to B2, the binding result in the series with ELF-1 [3] and with FLI-1 [4] was “no binding” throughout.
